From patent US8987424B2, “CA6 antigen-specific cytotoxic conjugate and methods of using the same” (ImmunoGen, Inc., priority 2003, dated 2015) come the findings set out here.

One data set concerns HeLa tumor xenografts. Put plainly: Subcutaneous HeLa xenograft efficacy study. The format is in vivo, SCID mice. The method, then:
OVCAR5 (FIG. 26A and FIG. 26B), TOV-21 G (FIG. 26C and FIG. 26D), HPAC (FIG. 26E and FIG. 26F), and HeLa (FIG. 26G and FIG. 26H) cells were inoculated on day 0, and immunoconjugate treatments were given on day 6 and 13. PBS control animals were euthanized once tumor volumes exceeded 1000 mm^3. The conjugate was given at a dose of 600 μg/kg DM1, corresponding to an antibody concentration 27.7 mg/kg. Tumor volume (FIG. 26A, FIG. 26C, FIG. 26E, and FIG. 26G) and body weight (FIG. 26B, FIG. 26D, FIG. 26F, and FIG. 26H) of the mice were monitored during the course of the study.
muDS6-DM 1 activity was further tested on a panel of subcutaneous xenograft models (see FIG. 26). […] OVCAR5 cells and TOV-21 G are ovarian tumor cell lines; HPAC is a pancreatic tumor cell line; HeLa is a cervical tumor cell line. OVCAR5 and TOV-21G cells have low surface CA6 expression; HeLa cells have an intermediate level of surface CA6 expression; HPAC cells have a high CA6 density of surface expression. TOV-21G and HPAC cells are maytansine sensitive; OVCAR5 and HeLa cells are 2-7-fold less maytansine sensitive.
The 4 cell-lines were grown in vitro, collected, and 1×10^7 cells in a 100 μL of serum free medium were injected under the right shoulder of each mouse (6 mice per model) and allowed to grow for 6 days to an average tumor volume of 57.6±6.7 and 90.2±13.4 mm^3 for the test and control groups respectively of OVCAR5, 147.1±29.6 and 176.2±18.9 mm^3 for the test and control groups respectively of HPAC, 194.3±37.2 and 201.7±71.7 mm^3 for the test and control groups respectively of HeLa, and 96.6±22.8 and 155.6±13.4 mm^3 for the test and control groups respectively of TOV-21G, at which time drug treatment was initiated. For each model three control mice were treated with two weekly doses of PBS and three test mice were treated with two weekly doses of conjugate (600 μg/kg DM1) intravenously. Toxic responses were monitored daily during the treatment and tumor volumes and body weights were monitored throughout the study. […]

In a further data set the test system is BT-20 cells. Put plainly: MTT cell viability assay. Type of data set: cell-based, human. The settings on record: highest conjugate concentration (32 nM). The method, then: (§1) In the MTT assay, cells were seeded in 96-well plates at a density of 1000-5000 cells/well. The cells were plated with serial dilutions of either naked muDS6 or muDS6-DM1 immunoconjugate in 200 μl of culture media. The samples were run in triplicate. The cells and antibody/conjugate mixtures were then incubated for 2-7 d, at which time cell viability was assessed by an MTT ([3(4,5-dimethylthiazol-2-yl)-2,5-diphenyl tetrazolium bromide)] assay. MTT (50 μg/well) was added to the culture supernatant and allowed to incubate for 3-4 h at 37° C. The media was removed and the MTT formazan was solubilized in DMSO (175 μl/well). The absorbance at 540-545 nm was measured. […] The wells with the highest concentrations of conjugate contained no viable cells as compared to naked antibody which had no effect (FIGS. 21 and 24).

The next data set has as its system OVCAR5 cells. Put plainly: MTT cell viability assay. The settings on record: highest conjugate concentration (32 nM). The format is cell-based, human. On the procedure: as §1
Data set [1] has as its system HPAC cells. In words: MTT cell viability assay. The format is cell-based, human. The settings on record: highest conjugate concentration (32 nM). On the procedure:
as §1

In the next data set the test system is ZR-75-1 cells. Put plainly: Complement-dependent cytotoxicity (CDC) assay. The settings on record: 5% human or rabbit serum. The format is cell-based. On the procedure: (§2) To further test the inherent activity of naked muDS6, a complement-dependent cytotoxicity (CDC) assay using muDS6 was conducted. HPAC and ZR-75-1 cells (25000 cells/well) were plated in 96 well plates, in the presence of 5% human or rabbit serum and various dilutions of muDS6, in 200 μl of RHBP media (RPMI-1640, 0.1% BSA, 20 mM HEPES (pH 7.2-7.4), 100 U/ml penicillin and 100 ug/ml streptomycin). The cells were incubated for 2 h at 37° C. Then Alamar Blue (10% of final concentration) reagent (Biosource) was added to the supernatant. The cells were incubated for 5-24 hrs before measuring fluorescence.

The test system of data set [2] is HPAC cells. In words: Complement-dependent cytotoxicity (CDC) assay. The format is cell-based. The settings on record: 5% human or rabbit serum. The method, then: as §2
For another data set, the system named is KB cells. Put plainly: Flow cytometry binding assay. The settings on record: KB. Also noted: species or system human. On the procedure: (§3) Cells were maintained in a 37° C., 5% CO2 humidified incubator.
(§4) Cells ([…]) were incubated, on ice for 3-4 h, with serially diluted concentrations of the DS6 antibody prepared in FACS buffer (2% goat serum, RPMI) into 96-well plates. The cells were spun down in a table top centrifuge at 1500 rpm for 5 min at 4° C. After removing the media, the wells were then refilled with 150 μl of FACS buffer. The wash step was then repeated. FITC-labeled goat anti-mouse IgG (Jackson Immunoresearch) was diluted 1:100 to FACS buffer and incubated with the cells for 1 h on ice. The plate was covered in foil to prevent photobleaching of the signal. After two washes, the cells were fixed with 1% formaldehyde and analyzed on a flow cytometer.
The affinity of the purified huIgG was compared with muDS6 by flow cytometry. In the first set of experiments direct binding to a CA6-expressing cell line, KB, was measured. […] To confirm that the huDS6 versions retain the affinity of muDS6, competitive binding experiments were conducted. The advantage of this format is that the same detection system is used for both murine and human antibodies; that is biotin-muDS6/streptavidin-DTAF.
The binding was conducted essentially as described for FIG. 20 except that KB cells were used rather than CaOv-3 cells.

A further data set relates to Caov-3 cells. Put plainly: MTT cell viability assay. The format is cell-based, human. On the procedure: as §1
For another data set, the system named is HeLa cells. In words: Flow cytometry binding assay. Also noted: species or system human. The settings on record: HeLa. The method, then: as §3, §4
[3] abbreviates: 600 μg/kg DM1, two weekly doses.

B1: DS6-DM1: muDS6 antibody modified with SPP and conjugated to the maytansinoid DM1 (conjugate)
VH: QAYLQQSGAELVRSGASVKMSCKASGYTFTSYNMHWVKQTPGQGLEWIGYIYPGNGATNYNQKFKGKATLTADPSSSTAYMQISSLTSEDSAVYFCARGDSVPFAYWGQGTLVTVSA
VL: QIVLTQSPAIMSASPGEKVTITCSAHSSVSFMHWFQQKPGTSPKLWIYSTSSLASGVPARFGGSGSGTSYSLTISRMEAEDAATYYCQQRSSFPLTFGAGTKLELKR
In the case of B1, in the data set on HeLa tumor xenografts (setting [3]), the body weight entry was “no weight loss was observed”. For the same molecule, in the data set on HeLa tumor xenografts (setting [3]), the “tumor status at day 61” value was “tumor-free”. The tumor regression result in the data set with HeLa tumor xenografts (600 μg/kg DM1 i.v., two weekly doses) is given as “complete tumor regression in all mice”. For the same molecule, the cells still viable result in the data set on BT-20 cells, with OVCAR5 cells and with HPAC cells [1] was “over 50%” in each case.

B2: DS6: murine anti-CA6 monoclonal antibody DS6 (ATCC deposit number PTA-4449) (antibody, V domains shown)
VH: B1 VH
VL: B1 VL
As to B2, the CDC mediated effect entry is given as “no effect” in the data set on ZR-75-1 cells (listed as Murine DS6), “no CDC mediated effect” with ZR-75-1 cells (listed as muDS6), “no effect” in the data set on HPAC cells [2] (listed as Murine DS6) and “no CDC mediated effect” with HPAC cells [2] (listed as muDS6). For the same molecule, the “MMF (average maximum relative mean fluorescence)” value turned out to be 119.56 in the data set with KB cells and 242.50 in the data set with HeLa cells. Also, the “effect of naked antibody on cell viability” value in the data set with Caov-3 cells is listed as “no effect”.
